Source: patent US20230235334A1

Target: OmpR fused to the VP64 activation domain (E. coli)
Experiment: cell-based or functional assay

## EnvZm2 (T247A) (from UniProt A0A4P7TSF2 1-450) (enzyme)
  fold-change of OmpR-driven mKate2 median fluorescence output (6xmCMV37 promoter, HEK-293FT cells), EnvZm2 (kinase) against EnvZm1 (D244A phosphatase, SEQ ID NO: 2), at the highest levels of OmpR: 40 fold
  fold-change of mKate2 median fluorescence output from the strongest OmpR promoter when the kinase (EnvZm2) or the phosphatase (EnvZm1) was present, HEK-293FT cells: 500 fold
  relative kinase strength against EnvZm1 phosphatase, from OmpR-driven mKate2 output in kinase titrations (Open-loop against Const. P), HEK-293FT cells: < 3 fold
